Common to all, as to assay: Kinase Profiling Assay
Common to all, as to format: biochemical
Settings in all cases: 100 μM peptide

In one test the target is CDK6/cyclinD3(h) (Homo sapiens, UniProt Q00534). In short, it runs like this: (§1)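 Specificity of the MK2-directed peptides is examined by measuring activity of 266 human kinases, every determination performed in duplicate.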
Another test deals with BRK(h) (Homo sapiens, UniProt Q13882). In short, it runs like this: as §1
Another test deals with FGFR4(h) (Homo sapiens, UniProt P22455). In outline:
as §1

Another test deals with MSK1(h) (Homo sapiens, UniProt O75582). In outline: as §1
Chain of MSK1(h) (O75582 whole entry): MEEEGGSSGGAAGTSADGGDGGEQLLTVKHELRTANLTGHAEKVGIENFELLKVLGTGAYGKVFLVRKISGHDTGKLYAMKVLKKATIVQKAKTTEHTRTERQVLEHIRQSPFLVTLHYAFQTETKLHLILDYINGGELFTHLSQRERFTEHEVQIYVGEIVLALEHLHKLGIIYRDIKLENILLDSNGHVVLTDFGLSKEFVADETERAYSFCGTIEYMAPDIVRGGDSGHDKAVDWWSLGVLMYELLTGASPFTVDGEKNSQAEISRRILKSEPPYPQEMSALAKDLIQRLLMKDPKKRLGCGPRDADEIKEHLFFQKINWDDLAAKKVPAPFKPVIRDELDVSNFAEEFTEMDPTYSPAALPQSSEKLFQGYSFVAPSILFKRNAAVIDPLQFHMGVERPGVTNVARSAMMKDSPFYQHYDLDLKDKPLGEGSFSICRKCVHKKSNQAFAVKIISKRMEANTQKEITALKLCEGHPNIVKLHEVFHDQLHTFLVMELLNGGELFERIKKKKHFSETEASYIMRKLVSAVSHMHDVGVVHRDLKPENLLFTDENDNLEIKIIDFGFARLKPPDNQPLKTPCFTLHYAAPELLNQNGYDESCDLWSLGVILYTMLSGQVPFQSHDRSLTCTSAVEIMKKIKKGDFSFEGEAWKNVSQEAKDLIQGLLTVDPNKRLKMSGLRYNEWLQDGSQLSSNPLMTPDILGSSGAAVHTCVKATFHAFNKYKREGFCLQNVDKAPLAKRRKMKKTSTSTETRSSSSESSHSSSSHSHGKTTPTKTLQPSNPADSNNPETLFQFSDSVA
The next test has as its target LOK(h) (Homo sapiens, UniProt O94804). In short, it runs like this: as §1
In a further test the target is SAPK2b(h) (Homo sapiens, UniProt Q15759). In outline:
as §1

For another test, the target named is PKCδ(h) (Homo sapiens, UniProt Q05655). In short, it runs like this:
as §1

In the next test the target is PAK2(h) (Homo sapiens, UniProt Q13177). In outline:
as §1

Another test concerns the target T1, Haspin(h) (Homo sapiens, UniProt Q8TF76).
T1 construct: purchased Millipore
T1 sequence (Q8TF76 1-798): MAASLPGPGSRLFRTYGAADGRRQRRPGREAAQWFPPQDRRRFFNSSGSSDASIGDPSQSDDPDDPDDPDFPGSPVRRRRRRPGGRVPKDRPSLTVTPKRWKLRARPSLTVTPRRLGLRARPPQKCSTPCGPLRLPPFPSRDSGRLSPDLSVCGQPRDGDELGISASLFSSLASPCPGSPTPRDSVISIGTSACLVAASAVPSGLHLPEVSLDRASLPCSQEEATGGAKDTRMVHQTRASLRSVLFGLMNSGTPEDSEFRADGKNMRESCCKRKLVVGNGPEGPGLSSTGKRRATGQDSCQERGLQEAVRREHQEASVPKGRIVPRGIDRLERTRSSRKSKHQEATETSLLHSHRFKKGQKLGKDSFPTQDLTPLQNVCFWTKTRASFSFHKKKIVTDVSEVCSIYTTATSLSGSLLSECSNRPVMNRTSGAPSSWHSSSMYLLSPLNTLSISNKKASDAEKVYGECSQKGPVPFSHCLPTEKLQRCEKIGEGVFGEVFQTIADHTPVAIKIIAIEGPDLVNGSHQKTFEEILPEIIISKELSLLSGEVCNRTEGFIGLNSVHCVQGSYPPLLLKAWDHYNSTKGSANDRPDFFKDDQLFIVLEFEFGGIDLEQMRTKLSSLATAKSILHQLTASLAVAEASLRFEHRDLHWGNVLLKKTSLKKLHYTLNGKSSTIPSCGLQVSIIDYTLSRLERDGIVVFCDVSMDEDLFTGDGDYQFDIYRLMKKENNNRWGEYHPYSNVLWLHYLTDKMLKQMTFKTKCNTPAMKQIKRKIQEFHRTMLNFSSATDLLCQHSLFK
In outline:
as §1

The target of a further test is T2, Bmx(h) (Homo sapiens, UniProt P51813).
T2 sequence (P51813 1-675): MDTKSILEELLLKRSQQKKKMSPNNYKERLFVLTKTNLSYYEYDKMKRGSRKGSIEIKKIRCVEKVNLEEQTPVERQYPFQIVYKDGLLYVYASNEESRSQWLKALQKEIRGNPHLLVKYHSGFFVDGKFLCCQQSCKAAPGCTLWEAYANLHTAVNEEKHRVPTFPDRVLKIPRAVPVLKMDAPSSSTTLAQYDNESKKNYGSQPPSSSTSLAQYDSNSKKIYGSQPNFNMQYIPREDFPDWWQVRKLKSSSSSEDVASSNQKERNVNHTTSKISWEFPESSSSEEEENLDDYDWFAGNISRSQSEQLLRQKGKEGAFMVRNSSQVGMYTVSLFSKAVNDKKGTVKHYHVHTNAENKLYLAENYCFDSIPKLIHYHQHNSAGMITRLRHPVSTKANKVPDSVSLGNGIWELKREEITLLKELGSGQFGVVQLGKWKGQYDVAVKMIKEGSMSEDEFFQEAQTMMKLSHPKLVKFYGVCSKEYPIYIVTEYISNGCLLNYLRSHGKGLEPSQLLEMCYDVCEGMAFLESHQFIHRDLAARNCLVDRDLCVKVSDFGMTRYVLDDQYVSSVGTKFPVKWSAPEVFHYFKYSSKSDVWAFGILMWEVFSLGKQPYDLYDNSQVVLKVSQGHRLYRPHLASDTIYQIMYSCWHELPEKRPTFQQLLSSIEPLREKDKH
In outline: as §1

The target of another test is MELK(h) (Homo sapiens, UniProt Q14680). In outline: as §1
Chain of MELK(h) (Q14680 whole entry): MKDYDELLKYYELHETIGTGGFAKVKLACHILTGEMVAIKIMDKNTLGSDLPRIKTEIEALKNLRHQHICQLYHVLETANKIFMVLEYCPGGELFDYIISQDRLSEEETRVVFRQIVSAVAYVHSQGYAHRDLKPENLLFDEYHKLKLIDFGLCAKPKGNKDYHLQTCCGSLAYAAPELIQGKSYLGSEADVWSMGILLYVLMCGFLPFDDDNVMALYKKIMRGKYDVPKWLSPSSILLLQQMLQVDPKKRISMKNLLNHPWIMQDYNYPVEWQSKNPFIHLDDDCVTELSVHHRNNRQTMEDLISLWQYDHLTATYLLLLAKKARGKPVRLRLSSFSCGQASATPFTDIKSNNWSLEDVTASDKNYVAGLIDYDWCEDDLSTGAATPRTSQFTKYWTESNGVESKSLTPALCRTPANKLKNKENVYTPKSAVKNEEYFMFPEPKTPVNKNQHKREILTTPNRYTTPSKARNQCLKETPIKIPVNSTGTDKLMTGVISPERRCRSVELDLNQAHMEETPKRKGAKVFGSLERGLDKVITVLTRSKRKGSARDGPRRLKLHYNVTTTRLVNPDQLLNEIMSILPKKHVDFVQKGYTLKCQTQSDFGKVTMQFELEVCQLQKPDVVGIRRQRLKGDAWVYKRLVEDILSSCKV
For another test, the target named is Abl(Q252H)(h) (Homo sapiens, UniProt P00519, Q252H). In outline: as §1
For a further test, the target named is T3, PRAK(h) (Homo sapiens, UniProt Q8IW41).
T3 construct: purchased Millipore (IC50 Profiler Express service)
T3 sequence (Q8IW41 1-473): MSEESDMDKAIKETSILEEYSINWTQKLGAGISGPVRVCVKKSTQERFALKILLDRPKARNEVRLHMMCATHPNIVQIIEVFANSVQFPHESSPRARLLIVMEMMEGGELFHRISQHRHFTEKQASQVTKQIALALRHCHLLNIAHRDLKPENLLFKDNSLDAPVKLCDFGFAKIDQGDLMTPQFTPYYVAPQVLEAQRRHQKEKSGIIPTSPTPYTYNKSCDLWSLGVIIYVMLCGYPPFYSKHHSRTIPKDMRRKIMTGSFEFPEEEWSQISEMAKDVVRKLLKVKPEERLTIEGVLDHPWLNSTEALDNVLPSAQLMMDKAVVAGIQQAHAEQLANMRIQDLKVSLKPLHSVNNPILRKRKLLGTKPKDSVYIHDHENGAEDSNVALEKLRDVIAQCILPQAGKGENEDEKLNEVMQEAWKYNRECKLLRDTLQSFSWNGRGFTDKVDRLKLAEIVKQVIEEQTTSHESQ
In outline:
as §1

This is an account of results in patent US10562947B2, “Compositions and methods for preventing or treating diseases, conditions or processes characterized by aberrant fibroblast proliferation and extracellular matrix deposition” (MOERAE MATRIX, INC., priority 2011, dated 2020).

Chain of LOK(h) (O94804 whole entry): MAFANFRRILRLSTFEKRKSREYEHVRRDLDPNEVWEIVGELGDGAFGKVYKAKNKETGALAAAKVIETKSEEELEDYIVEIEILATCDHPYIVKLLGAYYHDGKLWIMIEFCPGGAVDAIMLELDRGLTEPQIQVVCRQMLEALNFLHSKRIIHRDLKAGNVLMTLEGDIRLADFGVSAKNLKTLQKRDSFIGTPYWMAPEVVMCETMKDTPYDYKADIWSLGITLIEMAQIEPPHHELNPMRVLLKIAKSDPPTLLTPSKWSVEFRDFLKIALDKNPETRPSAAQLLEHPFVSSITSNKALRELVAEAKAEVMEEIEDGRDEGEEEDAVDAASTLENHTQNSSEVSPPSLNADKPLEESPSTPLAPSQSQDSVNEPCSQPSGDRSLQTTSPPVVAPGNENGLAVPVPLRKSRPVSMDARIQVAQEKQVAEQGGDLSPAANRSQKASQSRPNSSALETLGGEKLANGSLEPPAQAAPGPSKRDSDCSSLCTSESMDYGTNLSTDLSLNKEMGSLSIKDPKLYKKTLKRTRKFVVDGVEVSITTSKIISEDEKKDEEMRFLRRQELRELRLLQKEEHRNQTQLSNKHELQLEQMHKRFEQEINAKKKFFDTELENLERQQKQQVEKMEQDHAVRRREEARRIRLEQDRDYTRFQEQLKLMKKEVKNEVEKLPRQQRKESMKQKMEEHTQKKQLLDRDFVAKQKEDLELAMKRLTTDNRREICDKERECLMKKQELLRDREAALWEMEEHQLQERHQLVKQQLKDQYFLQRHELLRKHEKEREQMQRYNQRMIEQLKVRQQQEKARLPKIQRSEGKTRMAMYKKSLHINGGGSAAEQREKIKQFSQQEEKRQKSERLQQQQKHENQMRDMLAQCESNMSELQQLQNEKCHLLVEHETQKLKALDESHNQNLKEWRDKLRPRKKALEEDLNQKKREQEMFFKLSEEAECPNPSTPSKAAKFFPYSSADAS
Chain of PKCδ(h) (Q05655 whole entry): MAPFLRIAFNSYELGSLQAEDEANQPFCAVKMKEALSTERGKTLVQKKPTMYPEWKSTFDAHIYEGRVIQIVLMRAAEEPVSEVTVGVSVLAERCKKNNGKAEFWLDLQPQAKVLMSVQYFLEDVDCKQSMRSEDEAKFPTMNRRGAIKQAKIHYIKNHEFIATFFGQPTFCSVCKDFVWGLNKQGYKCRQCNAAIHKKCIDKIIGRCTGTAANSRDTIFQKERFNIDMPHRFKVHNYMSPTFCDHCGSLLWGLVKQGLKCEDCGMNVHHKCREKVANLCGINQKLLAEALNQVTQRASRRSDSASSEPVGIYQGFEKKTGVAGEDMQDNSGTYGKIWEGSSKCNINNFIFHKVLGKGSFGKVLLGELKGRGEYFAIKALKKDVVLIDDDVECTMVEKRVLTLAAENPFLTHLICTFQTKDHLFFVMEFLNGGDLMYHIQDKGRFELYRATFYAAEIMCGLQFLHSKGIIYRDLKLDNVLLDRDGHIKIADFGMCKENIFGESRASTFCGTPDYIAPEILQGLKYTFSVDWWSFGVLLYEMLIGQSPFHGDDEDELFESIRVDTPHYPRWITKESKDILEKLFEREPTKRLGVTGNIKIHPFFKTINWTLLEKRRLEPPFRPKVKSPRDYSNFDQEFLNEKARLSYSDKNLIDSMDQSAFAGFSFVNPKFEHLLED
Chain of CDK6/cyclinD3(h) (Q00534 whole entry): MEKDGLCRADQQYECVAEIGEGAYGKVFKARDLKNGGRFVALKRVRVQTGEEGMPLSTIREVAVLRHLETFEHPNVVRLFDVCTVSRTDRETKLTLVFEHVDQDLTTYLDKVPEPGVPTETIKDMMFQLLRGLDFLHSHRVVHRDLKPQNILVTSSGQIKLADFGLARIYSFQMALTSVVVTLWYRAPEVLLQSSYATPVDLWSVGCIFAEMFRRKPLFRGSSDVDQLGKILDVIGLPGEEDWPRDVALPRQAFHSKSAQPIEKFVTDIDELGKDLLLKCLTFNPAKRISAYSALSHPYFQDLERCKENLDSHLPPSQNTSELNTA
Chain of CDK6/cyclinD3(h) (P30281 whole entry partner): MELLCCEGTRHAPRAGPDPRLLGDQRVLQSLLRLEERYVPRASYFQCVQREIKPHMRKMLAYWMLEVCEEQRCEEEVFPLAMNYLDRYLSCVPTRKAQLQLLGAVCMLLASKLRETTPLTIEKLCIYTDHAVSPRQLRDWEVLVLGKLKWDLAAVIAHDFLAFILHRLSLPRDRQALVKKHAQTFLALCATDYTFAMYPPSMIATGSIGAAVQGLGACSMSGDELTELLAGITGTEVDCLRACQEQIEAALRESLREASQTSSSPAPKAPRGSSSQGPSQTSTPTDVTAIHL
Chain of BRK(h) (Q13882 whole entry): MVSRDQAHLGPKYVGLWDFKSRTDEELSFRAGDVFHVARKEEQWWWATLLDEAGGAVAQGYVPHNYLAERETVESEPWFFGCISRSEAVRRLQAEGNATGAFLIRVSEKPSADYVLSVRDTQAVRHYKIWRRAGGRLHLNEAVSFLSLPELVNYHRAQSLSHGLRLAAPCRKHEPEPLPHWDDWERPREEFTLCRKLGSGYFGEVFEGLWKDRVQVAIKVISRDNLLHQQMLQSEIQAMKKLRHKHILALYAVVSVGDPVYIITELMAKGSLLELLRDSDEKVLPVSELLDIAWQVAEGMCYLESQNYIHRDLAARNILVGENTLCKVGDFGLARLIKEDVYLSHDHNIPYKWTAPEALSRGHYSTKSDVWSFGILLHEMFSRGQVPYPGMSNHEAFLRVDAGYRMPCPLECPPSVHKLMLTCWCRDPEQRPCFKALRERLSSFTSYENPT
Chain of SAPK2b(h) (Q15759 whole entry): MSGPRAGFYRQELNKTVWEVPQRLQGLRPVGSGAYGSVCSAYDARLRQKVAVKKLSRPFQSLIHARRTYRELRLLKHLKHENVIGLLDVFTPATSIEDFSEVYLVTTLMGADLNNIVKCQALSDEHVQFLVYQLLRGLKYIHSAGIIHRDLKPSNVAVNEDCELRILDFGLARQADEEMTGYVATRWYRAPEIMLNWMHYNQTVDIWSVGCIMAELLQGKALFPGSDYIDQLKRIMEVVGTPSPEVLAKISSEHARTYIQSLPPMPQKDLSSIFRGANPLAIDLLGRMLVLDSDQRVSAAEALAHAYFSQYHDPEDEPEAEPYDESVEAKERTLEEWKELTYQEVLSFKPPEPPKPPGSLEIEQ

Turning to “YARAAARQARAKALNRQLGVA (Mammalian) [MMI-0200]”, the “CDK6/cyclinD3(h) % activity” value with CDK6/cyclinD3(h) came to 100%. The “BRK(h) % activity” value with BRK(h) worked out at 127%. For the same sequence, the “FGFR4(h) % activity” value with FGFR4(h) came to 75%. Further, in the test with MSK1(h), the “MSK1(h) % activity” value amounted to 50%. In addition, the “LOK(h) % activity” value with LOK(h) is 67%. For the same sequence, in the test with SAPK2b(h), the “SAPK2b(h) % activity” value is recorded as 95%. The “PKCδ(h) % activity” value with PKCδ(h) came to 101%. Moreover, in the test with PAK2(h), the “PAK2(h) % activity” value is given as 69%. The “Haspin(h) % activity” value with Haspin(h) was 71%. Besides, in the test with Bmx(h), the “Bmx(h) % activity” value was determined as 76%. Besides, the “MELK(h) % activity” value with MELK(h) worked out at 59%.

“HRRIKAWLKKIKALARQLGVAA (Mammalian) [MMI-0500]”: the “CDK6/cyclinD3(h) % activity” value with CDK6/cyclinD3(h) is on record as 23%. For the same sequence, the “BRK(h) % activity” value with BRK(h) was 41%. Moreover, the “FGFR4(h) % activity” value in the test with FGFR4(h) stood at 3%. For the same sequence, in the test with Abl(Q252H)(h), the “Abl(Q252H)(h) % activity” value is given as 40%. The “MSK1(h) % activity” value in the test with MSK1(h) stood at 8%. Moreover, the “LOK(h) % activity” value in the test with LOK(h) amounted to 7%. For the same sequence, in the test with SAPK2b(h), the “SAPK2b(h) % activity” value worked out at 42%. Moreover, the “PRAK(h) % activity” value with PRAK(h) turned out to be 95%. For the same sequence, the “PKCδ(h) % activity” value in the test with PKCδ(h) was 61%. In addition, in the test with PAK2(h), the “PAK2(h) % activity” value stood at 44%. The “Haspin(h) % activity” value with Haspin(h) is 25%. In addition, the “Bmx(h) % activity” value with Bmx(h) is recorded as 45%. In the test with MELK(h), the “MELK(h) % activity” value came to 0%.

KAFAKLAARLYRKALARQLGVAA [MMI-0400]: the “CDK6/cyclinD3(h) % activity” value with CDK6/cyclinD3(h) was 85%. In addition, the “BRK(h) % activity” value with BRK(h) is given as 18%. Further, the “FGFR4(h) % activity” value with FGFR4(h) is on record as 19%. The “Abl(Q252H)(h) % activity” value with Abl(Q252H)(h) was determined as 98%. In addition, in the test with MSK1(h), the “MSK1(h) % activity” value was 28%. Moreover, in the test with LOK(h), the “LOK(h) % activity” value came to 18%. In addition, the “SAPK2b(h) % activity” value with SAPK2b(h) worked out at 82%. The “PRAK(h) % activity” value with PRAK(h) turned out to be 118%. Further, the “PKCδ(h) % activity” value in the test with PKCδ(h) is on record as 90%. Also, the “PAK2(h) % activity” value in the test with PAK2(h) stood at 59%. The “Haspin(h) % activity” value with Haspin(h) is given as 36%. In addition, in the test with Bmx(h), the “Bmx(h) % activity” value is listed as 26%. The “MELK(h) % activity” value with MELK(h) is 17%.

As to FAKLAARLYRKALARQLGVAA [MMI-0300], the “CDK6/cyclinD3(h) % activity” value with CDK6/cyclinD3(h) worked out at 86%. The “BRK(h) % activity” value in the test with BRK(h) was found to be 35%. In addition, the “FGFR4(h) % activity” value with FGFR4(h) was 28%. For the same sequence, the “Abl(Q252H)(h) % activity” value with Abl(Q252H)(h) came out at 82%. Besides, the “MSK1(h) % activity” value with MSK1(h) is 32%. Besides, the “LOK(h) % activity” value with LOK(h) was 37%. In addition, in the test with SAPK2b(h), the “SAPK2b(h) % activity” value was 81%. Also, the “PRAK(h) % activity” value in the test with PRAK(h) is given as 128%. The “PKCδ(h) % activity” value with PKCδ(h) is recorded as 101%. Moreover, the “PAK2(h) % activity” value with PAK2(h) is 65%. Further, the “Haspin(h) % activity” value with Haspin(h) is 48%. For the same sequence, the “MELK(h) % activity” value with MELK(h) is recorded as 16%.
